Data: publication PMC3162612, “RssAB Signaling Coordinates Early Development of Surface Multicellularity in Serratia marcescens” (PLoS ONE, 2011)

Target: T1, GST-tagged non-phosphorylatable variant RssB D51E (Serratia marcescens, UniProt Q8GP20 1-219, D51E)
T1 construct: RssB, response regulator of the RssAB two-component system, Serratia marcescens CH-1, with D51E; plasmid pGST-RssB^D51E (pGEX-2T-rssB D51E); used to mimic unphosphorylated RssB; also called GST-RssB^D51E; source: E. coli BL21(DE3)pLysS, purified
T1 sequence: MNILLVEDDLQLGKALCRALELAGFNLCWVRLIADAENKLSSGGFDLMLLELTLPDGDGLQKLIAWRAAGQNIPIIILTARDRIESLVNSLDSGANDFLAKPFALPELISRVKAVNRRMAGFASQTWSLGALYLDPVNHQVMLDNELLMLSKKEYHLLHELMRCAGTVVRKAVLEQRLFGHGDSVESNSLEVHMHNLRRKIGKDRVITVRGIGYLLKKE
Assay: pull-down; GST, GST-RssB or GST-RssB D51E pretreated with acetyl-phosphate, incubated with His-cRssA and glutathione sepharose-4B in interaction buffer (20 mM Tris-HCl pH 7.5, 10 mM MgCl2, 100 mM KCl), 4°C 1 hr; washed; SDS-PAGE, Coomassie stain and anti-hexa-histidine blot
Conditions: both partners purified

B1: poly histidine-tagged cytoplasmic region of RssA (domain or fragment)
chain: LRPLRQIARTISDRQPGNLSPINVSEQYQEIRPVVMEVNKLMARIDAANQREKRFMADAAHELRTPIAAVLAQLHLLTQVTEQQERREIIGDMQQGLDRAASLSRQLINLAKLEAEDFPLKIEAVDIYAEIGKCIAQHVPYALEKDVELSLDGSEDVVVSTDRRALIAIFTNLLDNALKYAPPGSRIEANIRSLAPLGCYITLRDNGPGVSEEHRSRLFERFYRVPGTQQTGSGLGLAIARNLADKIGAQLRVTEGLDDRGIGFIIDLPESYRPQTESEPRP
notes: RssA, inner membrane sensor kinase of the RssAB two-component system, Serratia marcescens CH-1; also called His-cRssA; cRssA; source: E. coli BL21(DE3)pLysS, recombinant protein for purification
B1 was tested, and the “fold His-cRssA pulled down relative to GST-RssB” value was ~2 fold.
